Experimental data as given in the RNAGym collection of RNA variant scans (doi:10.1021/acssynbio.7b00057).

B1: Pistol ribozyme (parent)
chain: GGGUCGUUGUUCCAUAAUCGCGUGGAUAUGGCACGCAAGUUUCUACCGGGCACCGUAAAUGUCCGACUGGAGCCGUUCGGGCGGCUAUAAACAGACCUCAGGCCCGAAGCGUGGCGGCACCUGCCGCCGGUGGUAAAAAAGAUCGGAAGAGCACACGUCU

Variants of: B1
Assay: aptazyme ON/OFF ratio, guanine; higher = stronger switching; co-transcriptional cleavage with and without guanine

| Variant | aptazyme ON/OFF ratio |
| --- | --- |
| G9U U10A U11A | 2.34 |
| G9U U10A U11G | 2.39 |
| G9U U10A U11C | 1.33 |
| G9U C13U | 2.07 |
| G9U C13A | 1.34 |
| G9U C13G | 1.09 |
| G9U U11G C12G C13A | 1.49 |
| G9U U11G C12G C13G | 1.36 |
| G9U U11G C12G C13U | 1.21 |
| G9U U10C U11G C12G C13G | 1.24 |
| G9U U10C U11G C12G C13U | 1.12 |
| G9U U10C U11G C12G C13A | 1.17 |
| G9U U10G C12U C13U | 1.26 |
| G9U U10G C12U C13G | 1.66 |
| G9U U10G C12U C13A | 1.35 |
| G9U U11G C12A C13A | 1.31 |
| G9U U11G C12A C13U | 1.36 |
| G9U U11G C12A C13G | 1.32 |
| G9C U11A C12U C13U | 1.34 |
| G9C U11A C12U C13G | 1.17 |
| G9C U11A C12U C13A | 1.27 |

| Variant | aptazyme ON/OFF ratio |
| --- | --- |
| G9U U10G U11C C12U C13A | 1.14 |
| G9U U10G U11C C12U C13G | 1.17 |
| G9U U10G U11C C12U C13U | 1.18 |
| G9U U10G U11A C12U C13A | 1.21 |
| G9U U10G U11A C12U C13U | 1.85 |
| G9U U10G U11A C12U C13G | 1.24 |
| G9C U10G U11C C12A C13U | 1.25 |
| G9C U10G U11C C12A C13G | 1.15 |
| G9C U10G U11C C12A C13A | 1.22 |
| G9U U10A U11G C12G C13G | 1.11 |
| G9U U10A U11G C12G C13U | 1.14 |
| G9U U10A U11G C12G C13A | 1.1 |
| G9U U10G C13G | 1.29 |
| G9U U10G C13A | 1.52 |
| G9U U10G C13U | 1.65 |
| G9C U11C C12A C13U | 1.16 |
| G9C U11C C12A C13A | 1.12 |
| G9C U11C C12A C13G | 1.09 |
| G9C U10G U11G C13G | 1.12 |
| G9C U10G U11G C13A | 1.09 |
| G9C U10G U11G C13U | 1.13 |

| Variant | aptazyme ON/OFF ratio |
| --- | --- |
| G9U U10A U11A C12U C13G | 1.7 |
| G9U U10A U11A C12U C13U | 1.08 |
| G9U U10A U11A C12U C13A | 1.09 |
| G9U U11A C12A C13G | 1.31 |
| G9U U11A C12A C13A | 1.59 |
| G9U U11A C12A C13U | 1.23 |
| G9C U10G U11C C13A | 1.24 |
| G9C U10G U11C C13U | 1.06 |
| G9C U10G U11C C13G | 1.03 |
| G9U U10C U11A C13U | 1.48 |
| G9U U10C U11A C13G | 1.09 |
| G9U U10C U11A C13A | 1.31 |
| G9U U10A U11A C12G C13G | 1.51 |
| G9U U10A U11A C12G C13U | 1.64 |
| G9U U10A U11A C12G C13A | 0.999 |
| G9C U11G C12G C13A | 1.24 |
| G9C U11G C12G C13G | 1.07 |
| G9C U11G C12G C13U | 1.05 |
| G9U U10A | 3.18 |
| G9U U10G | 4.12 |
| G9U U10C | 4.48 |

| Variant | aptazyme ON/OFF ratio |
| --- | --- |
| G9U C12A C13A | 1.63 |
| G9U C12A C13G | 1.45 |
| G9U C12A C13U | 1.1 |
| G9U U11A C12G C13U | 1 |
| G9U U11A C12G C13G | 1.2 |
| G9U U11A C12G C13A | 1.82 |
| G9U U11C C12G | 1.83 |
| G9U U11C C12U | 2.4 |
| G9U U11C C12A | 2 |
| G9U U10A C13G | 1.27 |
| G9U U10A C13A | 1.27 |
| G9U U10A C13U | 1.54 |
| G9U U10A U11A C13U | 1.25 |
| G9U U10A U11A C13A | 1.38 |
| G9U U10A U11A C13G | 1.17 |
| G9C U10G U11G C12U C13G | 1.08 |
| G9C U10G U11G C12U C13U | 1.05 |
| G9C U10G U11G C12U C13A | 1.09 |
| G9C U11G C12U C13G | 1.25 |
| G9C U11G C12U C13A | 1.3 |
| G9C U11G C12U C13U | 1.41 |
